The source of these data is patent US20240239881A1 (Innovent, published 2024).

One assay concerns the target T1, Human Ang1 (human, UniProt Q15389 20-498, limits assumed).
T1 construct: also called hAng1
T1 sequence (looked up): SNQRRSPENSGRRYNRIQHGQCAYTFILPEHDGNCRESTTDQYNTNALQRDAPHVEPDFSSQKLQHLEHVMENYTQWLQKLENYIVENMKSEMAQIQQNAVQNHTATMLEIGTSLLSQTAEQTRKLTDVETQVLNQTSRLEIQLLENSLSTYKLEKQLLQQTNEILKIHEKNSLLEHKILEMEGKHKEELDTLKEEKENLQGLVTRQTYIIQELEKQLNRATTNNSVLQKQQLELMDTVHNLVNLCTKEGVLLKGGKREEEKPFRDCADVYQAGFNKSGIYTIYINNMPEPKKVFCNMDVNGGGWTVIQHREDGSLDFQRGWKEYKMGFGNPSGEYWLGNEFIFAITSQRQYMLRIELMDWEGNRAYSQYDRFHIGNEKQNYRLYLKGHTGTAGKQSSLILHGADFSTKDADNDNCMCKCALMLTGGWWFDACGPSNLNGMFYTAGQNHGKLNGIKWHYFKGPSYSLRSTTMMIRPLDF
As to the kind of experiment: ForteBio BLI, antibody on AHQ sensor. As for the experimental part: (§1) The equilibrium dissociation constants (KD) of the above exemplary antibodies of the present invention binding to human Ang2 (h Ang2), cynomolgus monkey Ang2 (cAng2), murine Ang2 (mAng2), and human Ang1 (hAng1) were determined using the biological optical interferometry (ForteBio) assay.
(§2) The ForteBio affinity assay was performed according to the existing method (Estep, P et al., High throughput solution-based measurement of antibody-antigen affinity and epitope binning. MAbs, 2013.5 (2): p. 270-8). Briefly, the sensor was equilibrated in the assay buffer off-line for 30 min, followed by on-line detection for 60 s to establish the baseline. Then the purified antibodies obtained as described above were loaded on-line onto an AHQ sensor (ForteBio) for ForteBio affinity assay. The sensors with loaded antibodies were exposed to 100 nM of hAng2, cAng2, mAng2, and hAng1 antigens for 5 min, and then were transferred into the assay buffer for dissociation for 5 min to determine the dissociation rate. Kinetic analysis was performed using a 1:1 binding model.

Assay [1] addresses T2, Rabbit ANG2 (rabbit, UniProt G1T9B3 19-496).
T2 sequence: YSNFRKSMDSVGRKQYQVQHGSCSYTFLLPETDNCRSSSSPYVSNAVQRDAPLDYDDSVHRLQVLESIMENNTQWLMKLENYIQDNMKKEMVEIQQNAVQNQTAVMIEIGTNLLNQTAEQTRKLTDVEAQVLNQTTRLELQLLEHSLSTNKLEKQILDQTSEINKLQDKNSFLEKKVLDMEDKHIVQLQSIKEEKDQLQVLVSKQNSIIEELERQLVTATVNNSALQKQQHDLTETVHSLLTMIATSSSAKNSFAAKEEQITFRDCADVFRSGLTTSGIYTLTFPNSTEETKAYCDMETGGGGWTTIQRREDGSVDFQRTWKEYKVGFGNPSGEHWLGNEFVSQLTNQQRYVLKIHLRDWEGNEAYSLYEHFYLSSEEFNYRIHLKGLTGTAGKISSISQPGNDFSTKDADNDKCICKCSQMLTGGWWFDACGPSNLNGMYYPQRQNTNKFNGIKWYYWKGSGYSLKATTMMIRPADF
The experiment in a line: SPR, Biacore T200, mean of three experiments. As for the experimental part:
(§3) The antibody was diluted to 1 μg/mL and was captured onto channel 2 for 30 s, and channel 1 was the blank control channel. The gradient-diluted Human ANG2, Rhesus ANG2, Rabbit ANG2, Rat ANG2 and Mouse ANG2 were sequentially injected into channels 1 and 2 of the chip, from low to high concentrations (0-32 nM), at a flow rate of 30 μL/min, with one concentration per cycle, and with 180 s association time and 1200 s dissociation time at 25° C. Finally, the chip was regenerated using Glycine pH 1.5 at 30 μL/min for 30 s. The affinity assay was repeated three times.
Background: SPR reads the build-up and loss of mass on a sensor chip optically.

Assay [2] concerns the target T3, human Ang2 (human, UniProt O15123 19-496, limits assumed).
T3 construct: also called hAng2; h Ang2
T3 sequence: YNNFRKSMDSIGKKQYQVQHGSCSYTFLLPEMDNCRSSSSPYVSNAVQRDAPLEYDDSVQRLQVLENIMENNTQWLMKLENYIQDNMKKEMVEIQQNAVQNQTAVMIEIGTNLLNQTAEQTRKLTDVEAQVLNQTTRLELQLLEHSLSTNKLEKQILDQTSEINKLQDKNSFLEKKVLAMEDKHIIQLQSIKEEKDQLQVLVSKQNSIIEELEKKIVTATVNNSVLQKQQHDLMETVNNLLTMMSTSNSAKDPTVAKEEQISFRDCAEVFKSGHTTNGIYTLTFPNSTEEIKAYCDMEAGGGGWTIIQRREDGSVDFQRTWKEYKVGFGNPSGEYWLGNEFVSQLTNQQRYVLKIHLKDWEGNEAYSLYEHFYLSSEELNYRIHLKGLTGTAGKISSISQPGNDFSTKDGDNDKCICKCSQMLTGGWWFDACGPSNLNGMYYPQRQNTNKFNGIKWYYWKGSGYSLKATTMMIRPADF
The experiment in a line: ForteBio BLI, antibody on AHQ sensor, 100 nM antigen, 1:1 model. As for the experimental part:
as §1, §2
For orientation: In BLI a coated tip is dipped into the sample, and binding shifts an interference pattern.

The target of the next assay is T4, Rhesus ANG2 (rhesus, UniProt F6QXG0 19-496).
T4 sequence: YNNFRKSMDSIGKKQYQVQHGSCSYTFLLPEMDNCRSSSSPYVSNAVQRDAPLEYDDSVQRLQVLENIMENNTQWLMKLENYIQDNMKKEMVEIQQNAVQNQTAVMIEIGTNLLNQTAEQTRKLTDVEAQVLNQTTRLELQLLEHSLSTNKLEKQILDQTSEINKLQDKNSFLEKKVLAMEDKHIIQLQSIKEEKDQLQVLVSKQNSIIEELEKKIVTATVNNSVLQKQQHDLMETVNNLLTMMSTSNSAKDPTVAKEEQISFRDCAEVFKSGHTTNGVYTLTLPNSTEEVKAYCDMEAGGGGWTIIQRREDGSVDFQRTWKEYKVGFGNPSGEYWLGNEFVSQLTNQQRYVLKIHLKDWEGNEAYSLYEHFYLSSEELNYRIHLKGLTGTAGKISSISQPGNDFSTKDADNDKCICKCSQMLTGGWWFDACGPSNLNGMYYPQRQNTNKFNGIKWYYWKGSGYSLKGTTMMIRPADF
The experiment in a line: SPR, Biacore T200, antibody captured on Protein G chip, experiment 2. As for the experimental part: as §3

Assay [3] addresses T2, Rabbit ANG2. The assay is described as above. As for the experimental part:
as §3

For assay [4], the target named is T3, human Ang2. Described as above. As for the experimental part: as §3

A word on the Kd: it is the constant that tells how readily two partners part at equilibrium. A high value points to a looser complex. The term koff denotes the rate constant with which the complex falls apart. A lower koff goes with slow dissociation. The term kon denotes the rate constant with which the complex forms. A low value points to slower complex formation.

B1: humanized antibody hz81H10.4 (antibody, human IgG1, kappa, V domains shown)
VH: EVQLVESGGGLVKPGGSLRLSCAASGFTFSNYWMNWVRQAPGKGLEWVAEIRLKSNNYATHYAESVKGRFTISRDVSKNTVYLQMNSLKTEDTAVYYCTDTAPFAYWGQGTLVTVSS
VL: DIQMTQSPSSLSASVGDRVTITCKASQDVGTDVAWYQQKPGKAPKLLIYWASTRHTGVPSRFSGSGSGTDFTLTISSLQPEDFATYYCQQYSSYPLTFGGGTKVEIKR
notes: also called IBI335
As to B1, in the assay with Human Ang1, the binding result is “no binding (tested: 100 nM)”. Besides, the Kd with Rabbit ANG2 [1] stood at 0.48 nM; with human Ang2 [2], 1.25 nM; with Rhesus ANG2 it was 0.126 nM; with Rabbit ANG2 [3], 0.477 nM; with human Ang2 [4] it was 0.0319 nM. The koff with Rhesus ANG2 is 3.67e-05 s⁻¹; in the assay with Rabbit ANG2 [3], 0.000152 s⁻¹; in the assay with human Ang2 [4], 8.25e-06 s⁻¹. For the same molecule, the results for the on-rate constant (kon) in the assay with Rhesus ANG2, in the assay with Rabbit ANG2 [3] and with human Ang2 [4] were 291000 M⁻¹ s⁻¹, 318000 M⁻¹ s⁻¹ and 259000 M⁻¹ s⁻¹, respectively.
